Results from the supplement of paper PMC10724198.
± gives the standard deviation of the averaged measurements.

System: Saccharomyces cerevisiae
Assay: protein stability index of tFT-peptide fusion (C-terminal peptide) (PSI (0-1 scale)); higher = more stable (slower turnover)
Details: genetic background: wild type; temperature: 30 C
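Also: PSI is a weighted mean of sequencing reads over stability bins, variants kept only with over 10 reads, mCherry proximal and sfGFP distal, peptide attached via GGGS linker.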

| Sequence | protein stability index |
| --- | --- |
| QGGREGSRQRRV | 0.629 ± 0.013 |
| RGLGGGAECGRW | 0.785 ± 0.12 |
| MNSDQSGQGLTV | 0.711 ± 0.011 |
| VLVSVSVPLRGR | 0.78 ± 0.1 |
| KIGNQLQELRRI | 0.696 ± 0.017 |
| LIRGVVVGLDGD | 0.685 ± 0.021 |
| PRKTRSTTTRKS | 0.593 ± 0.038 |
| LAARTKAQARHN | 0.652 ± 0.04 |
| IESFFLFSFSFP | 0.762 ± 0.31 |
| LVGFGGGGHGVV | 0.696 ± 0.019 |
| PHRACSSRPLGP | 0.718 ± 0.049 |
| RGLRIFMSRAWH | 0.75 ± 0.043 |
| LIDKPNNGVWIS | 0.587 ± 0.042 |
| VSGYGSSQDDVR | 0.6397 ± 0.0056 |
| LPAPLHPPPSQP | 0.638 ± 0.014 |
| KPRSRMHRIVRI | 0.722 ± 0.027 |
| AVCGSISSWMWF | 0.696 ± 0.0092 |
| YGFLFRFLSPNP | 0.6788 ± 0.0038 |
| LSTPWADPTSSP | 0.716 ± 0.096 |
| PPSWTPPSPLPL | 0.727 ± 0.06 |
| ARGGIGTCSWGW | 0.743 ± 0.074 |
| VGPRFAYLDVAA | 0.5644 ± 0.0031 |
| PAPRWFSHPSYP | 0.676 ± 0.01 |
| KRKKKRKQKGKQ | 0.722 ± 0.036 |

| Sequence | protein stability index |
| --- | --- |
| PPTLPVPSPSPL | 0.822 ± 0.25 |
| VLSLLGVLFCLF | 0.634 ± 0.028 |
| PALGLELYFVLV | 0.519 ± 0.012 |
| ASPPAYGPPPPP | 0.6806 ± 0.0035 |
| HNDYKGSQIDNG | 0.573 ± 0.046 |
| RPPLSPLLYPPP | 0.7115 ± 0.0022 |
| IGYHGRSLGWKR | 0.635 ± 0.082 |
| LSFDAVSVGFGG | 0.691 ± 0.064 |
| IPGSPIATARPG | 0.665 ± 0.025 |
| VNTISRKIPPIA | 0.648 ± 0.041 |
| STPPPPPTFQLS | 0.691 ± 0.047 |
| ASPYTVTPLTNS | 0.693 ± 0.016 |
| RGREGSSVAVMV | 0.646 ± 0.04 |
| QFGPSENVEFRS | 0.742 ± 0.036 |
| PSSPPSLRLPPL | 0.701 ± 0.044 |
| PPPPAPPAPPLR | 0.732 ± 0.056 |
| PPPTPLLLSHLL | 0.709 ± 0.068 |
| SPPTSPAPLPPP | 0.6502 ± 0.0032 |
| SISSFLPRRLPF | 0.662 ± 0.033 |
| CQWLIVEWEEKG | 0.662 ± 0.083 |
| PPPPAQGRRRPV | 0.703 ± 0.023 |
| WAGSGCECTGGG | 0.705 ± 0.0031 |
| SISLVLPASCIT | 0.693 ± 0.021 |
| LIGALSDCGFLG | 0.683 ± 0.031 |

| Sequence | protein stability index |
| --- | --- |
| SPRLHFPPRHPC | 0.717 ± 0.015 |
| TPPVHLPPSSFS | 0.744 ± 0.0023 |
| RLLVSDSLLLGC | 0.684 ± 0.014 |
| PPAPTAPPLSSH | 0.681 ± 0.03 |
| RSLSLAPSFPLP | 0.697 ± 0.0086 |
| PPPPVPLPPPRL | 0.713 ± 0.021 |
| NKQNKEIQPKRK | 0.653 ± 0.021 |
| LSHSHLYLFFHH | 0.6957 ± 0.0027 |
| RYCESKVFKERE | 0.742 ± 0.049 |
| EIRPRPYLCERF | 0.7253 ± 0.0064 |
| SLNQWTGTTLRQ | 0.66 ± 0.02 |
| ERGSRKKKDRRR | 0.639 ± 0.01 |
| LTVIRSRDVIGP | 0.641 ± 0.055 |
| VLKGIVKQTRRG | 0.685 ± 0.058 |
| VSYLLPPPPPPP | 0.682 ± 0.046 |
| PPPEVDLRPCHC | 0.688 ± 0.055 |
| CGGGRSTAWERS | 0.63 ± 0.015 |
| TFRKMEKKKDGG | 0.652 ± 0.018 |
| RGVGGVLEVLLG | 0.5256 ± 0.0032 |
| GGGCGGGQAGCQ | 0.691 ± 0.043 |
| SLVSYSPPLPPP | 0.681 ± 0.034 |
| FLGLSYYRLPVG | 0.606 ± 0.046 |
| EQVTCGGIRVGQ | 0.656 ± 0.086 |
| GTDGGRSSLGCR | 0.718 ± 0.026 |
